Results reported in the supplement of paper PMC9170038.

Tested on: K4 kissing-loop RNA reporter
Test: apparent KD of K4 kissing-loop reporter; higher = weaker reporter binding
Details: Eterna round: R107
Procedure: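 RNA-MaP round R107: designed RNA switches with theophylline, tryptophan, arginine or FMN aptamers are transcribed on-chip within common flanks. They are titrated with a labelled K4 kissing-loop RNA reporter in RNA-MaP buffer (100 mM Tris pH 7.5, 80 mM KCl, 4 mM MgCl2), without ligand or with the indicated ligand. Median apparent KD per design.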

[1] = input ligand: theophylline 20 uM
[2] = input ligand: tryptophan 2.4 mM
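Also: bound reporter read as fluorescence of individual clusters on recovered sequencing chips by microscopy, with normalized cluster intensities fitted with a binding model.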

Sequence	apparent KD of K4 kissing-loop reporter (input ligand: FMN 200 uM) [nM]	apparent KD of K4 kissing-loop reporter (input ligand: arginine 13.2 mM) [nM]	apparent KD of K4 kissing-loop reporter (input ligand: none) [nM]	apparent KD of K4 kissing-loop reporter [1] [nM]	apparent KD of K4 kissing-loop reporter [2] [nM]
AAAAUUGCGGUCGAAUUAACUUCUUGCAUACGAGGACCGGUACGGCCGCCACUCGAGUCAAGUGAUGUUUGAUAAUCUAUUAUUA [JR_ExcTryptoA_Sub011]	190	258	279	301	160
AAACAAGAUGCAGGAUAUACGGACCCAGUGAUGUUGGGUAGAAUUGUCCCGGCAAUCCUUGUGGCAGUAGAAGGGCAAUAAAAGA [Gexeraora]	271	134	169	144	151
AAACAUCACUACUUCUUCGUCCUAGAAGACUAGGAUAUCAGGAAACUGAGAAGGAGUCUCUGCAGUGAUGUUGCAGCUAGGACGA [[K]'-[F2]'-[F1]'-[F1]-[F2]-[K1]-[K2]-[F]''_Design2]	191	219	194	249	280
AAACAUCACUGGGAGUGAUGUUCUCAGUGACGAGGACCGGUACGGCCGCCACUCGCGAGAGAACUAGUCUAGUCUUGACUGCAUU [Excl Tryptophan A V14]	277	333	335	418	398
AAACAUCACUGGGAGUGAUGUUCUCAGUGACGAGGACCGGUACGGCCGCCACUCGCGAGAGAUAUAGGUAAGUAAUGACAUCAUU [Excl Tryptophan A V5]	340	282	360	327	392
AAACUUGCAGUGAUGUUGCAAGUAGGUGAUACCAGCAUCGAAAGAUGCCCUUGGCAGCACCAUCUUGUAACAUAGGUAUCACCAA [(H1)-(H2)-(T1)-(T2)-(H)'-(T)'_Design4]	208	208	194	326	225
AAAGUUGAUGAGUUGGGUAUGUGUUCCGAAGGAGCGAGAAUUAUCUCAGGUAGGUCGCGGAACAUGAGUGAUGUUCAUGUAUAAA [KL-XArg-A7 #analogue]	345	436	365	423	340
AAAUAAAGCAGUCACCCAGUGAUGUUGGAAGGAGCGUGCGAAAGCACAGGUAGGUCGCCAAAACCUAAUACUGGCUGCUAAAUAA [#03 K4 Arginine A Exclusion]	242	357	285	307	177
AAAUAAAGCAGUCAUCCAGUGAUGUUGGAAGGAGCGUGCGAAAGCACAGGUAGGUCGCCAAAACCUAAUAAUGGCUGCUAAAUAA [#SwitchBubble 2 #K4Early]	170	211	176	210	141
AAAUAAAGGGCGGCCGCCACUGAUCGCCUCCGCGUGGGUAUGUAGUGAUGUUAUAUGGCCGCCAUCAGGACCGGGCCAAAUAAAA [#10 K4 Tryptophan B Same State]	214	187	340	272	193
AACAGCAAUGCGGCCGCCACUUCGAGGUCAGUGAUGUUGACAGAAUUAAAUAAAGAUCCCAAGAGGAGGACCGGGCAGUGCUGUU [whbob_SS_Tryp_B_t24]	534	417	674	527	416
AACGCUGUGAAUAACACAGCGAAUAAUUCGCGAGGACCGGUACGGCCGCCACUCGCUAACUGCGAGUGAUGUUCGAUAAUAAAAU [Mat - Mod of OpenEnded 3 - D12]	148	116	177	237	113
AACUAUUAAUGAAUUACAUUUUAUUUUUCUCGAGGACCGGUACGGCCGCCACUCGUACUAUAGUGAUGUUAUAGAUAAGUCCUAA [JR_ExcTryptoA_Sub021]	118	184	134	177	71.3
AACUCUCAGGCACCCGAGUGAUGUUCGGGCCGAGGACCGGUACGGCCGCCACUCGGGCCUGAGAGAGGUUAUCAAAGAUAGCCAA [Omei KL Tryp A SS A v1]	247	68.5	114	62.7	248
AACUGCCAAGGAACAUUGUAAGAAGGUGAUACCAGCAUCGAAAGAUGCCCUUGGCAGCACCAACUUGCAGUGAUGUUGCAAGUAA [Design5]	183	156	165	180	159
